In patent US20250011410A1 (INVETX, published 2025):

B1: felinized clone 101 Fab-SASA variant S53P (VH) (Fab, V domains shown, not shown: small tags and cut ends)
VH: DVQLVESGGDLVKPGGSLRLTCVASGLSLTSSSMSWVRQAPGKGLQWVSTIYPNGGTYYTDSVKGRFTISKDNAENTLYLQMNNLKTEDTATYYCASIYYYDADYLHWYFDFWGQGALVTVSS
VL: EIQMTQSPTSLSASVGDRVTITCRASEGISNNLSWYQQTPGKAPKLLIYATSNLHSGVPSRFSGSGSGTDFTLTISSLQPEDFATYYCQQGYKWPLTFGGGTKLEITR
B2: felinized clone 101 Fab-SASA variant S97Q (VH) (Fab, V domains shown, not shown: small tags and cut ends)
VH: DVQLVESGGDLVKPGGSLRLTCVASGLSLTSSSMSWVRQAPGKGLQWVSTIYSNGGTYYTDSVKGRFTISKDNAENTLYLQMNNLKTEDTATYYCAQIYYYDADYLHWYFDFWGQGALVTVSS
VL: EIQMTQSPTSLSASVGDRVTITCRASEGISNNLSWYQQTPGKAPKLLIYATSNLHSGVPSRFSGSGSGTDFTLTISSLQPEDFATYYCQQGYKWPLTFGGGTKLEITR
notes: Fab-SASA in conditioned medium
B3: felinized clone 101 Fab-SASA variant S56E (VL) (Fab, V domains shown, not shown: small tags and cut ends)
VH: DVQLVESGGDLVKPGGSLRLTCVASGLSLTSSSMSWVRQAPGKGLQWVSTIYSNGGTYYTDSVKGRFTISKDNAENTLYLQMNNLKTEDTATYYCASIYYYDADYLHWYFDFWGQGALVTVSS
VL: EIQMTQSPTSLSASVGDRVTITCRASEGISNNLSWYQQTPGKAPKLLIYATSNLHEGVPSRFSGSGSGTDFTLTISSLQPEDFATYYCQQGYKWPLTFGGGTKLEITR
B4: felinized clone 101 Fab-SASA variant T30N (VH) (Fab, V domains shown, not shown: small tags and cut ends)
VH: DVQLVESGGDLVKPGGSLRLTCVASGLSLNSSSMSWVRQAPGKGLQWVSTIYSNGGTYYTDSVKGRFTISKDNAENTLYLQMNNLKTEDTATYYCASIYYYDADYLHWYFDFWGQGALVTVSS
VL: EIQMTQSPTSLSASVGDRVTITCRASEGISNNLSWYQQTPGKAPKLLIYATSNLHSGVPSRFSGSGSGTDFTLTISSLQPEDFATYYCQQGYKWPLTFGGGTKLEITR
B5: felinized clone 101 Fab-SASA variant S97T (VH) (Fab, V domains shown, not shown: small tags and cut ends)
VH: DVQLVESGGDLVKPGGSLRLTCVASGLSLTSSSMSWVRQAPGKGLQWVSTIYSNGGTYYTDSVKGRFTISKDNAENTLYLQMNNLKTEDTATYYCATIYYYDADYLHWYFDFWGQGALVTVSS
VL: EIQMTQSPTSLSASVGDRVTITCRASEGISNNLSWYQQTPGKAPKLLIYATSNLHSGVPSRFSGSGSGTDFTLTISSLQPEDFATYYCQQGYKWPLTFGGGTKLEITR
notes: as for B2
B6: felinized clone 101 Fab-SASA variant S97M (VH) (Fab, V domains shown, not shown: small tags and cut ends)
VH: DVQLVESGGDLVKPGGSLRLTCVASGLSLTSSSMSWVRQAPGKGLQWVSTIYSNGGTYYTDSVKGRFTISKDNAENTLYLQMNNLKTEDTATYYCAMIYYYDADYLHWYFDFWGQGALVTVSS
VL: EIQMTQSPTSLSASVGDRVTITCRASEGISNNLSWYQQTPGKAPKLLIYATSNLHSGVPSRFSGSGSGTDFTLTISSLQPEDFATYYCQQGYKWPLTFGGGTKLEITR
B7: felinized clone 101 Fab-SASA variant S56T (VL) (Fab, V domains shown, not shown: small tags and cut ends)
VH: DVQLVESGGDLVKPGGSLRLTCVASGLSLTSSSMSWVRQAPGKGLQWVSTIYSNGGTYYTDSVKGRFTISKDNAENTLYLQMNNLKTEDTATYYCASIYYYDADYLHWYFDFWGQGALVTVSS
VL: EIQMTQSPTSLSASVGDRVTITCRASEGISNNLSWYQQTPGKAPKLLIYATSNLHTGVPSRFSGSGSGTDFTLTISSLQPEDFATYYCQQGYKWPLTFGGGTKLEITR
B8: felinized clone 101 Fab-SASA variant S56D (VL) (Fab, V domains shown, not shown: small tags and cut ends)
VH: DVQLVESGGDLVKPGGSLRLTCVASGLSLTSSSMSWVRQAPGKGLQWVSTIYSNGGTYYTDSVKGRFTISKDNAENTLYLQMNNLKTEDTATYYCASIYYYDADYLHWYFDFWGQGALVTVSS
VL: EIQMTQSPTSLSASVGDRVTITCRASEGISNNLSWYQQTPGKAPKLLIYATSNLHDGVPSRFSGSGSGTDFTLTISSLQPEDFATYYCQQGYKWPLTFGGGTKLEITR
B9: felinized clone 101 Fab-SASA variant S97H (VH) (Fab, V domains shown, not shown: small tags and cut ends)
VH: DVQLVESGGDLVKPGGSLRLTCVASGLSLTSSSMSWVRQAPGKGLQWVSTIYSNGGTYYTDSVKGRFTISKDNAENTLYLQMNNLKTEDTATYYCAHIYYYDADYLHWYFDFWGQGALVTVSS
VL: EIQMTQSPTSLSASVGDRVTITCRASEGISNNLSWYQQTPGKAPKLLIYATSNLHSGVPSRFSGSGSGTDFTLTISSLQPEDFATYYCQQGYKWPLTFGGGTKLEITR
B10: felinized clone 101 Fab-SASA variant S56N (VL) (Fab, V domains shown, not shown: small tags and cut ends)
VH: DVQLVESGGDLVKPGGSLRLTCVASGLSLTSSSMSWVRQAPGKGLQWVSTIYSNGGTYYTDSVKGRFTISKDNAENTLYLQMNNLKTEDTATYYCASIYYYDADYLHWYFDFWGQGALVTVSS
VL: EIQMTQSPTSLSASVGDRVTITCRASEGISNNLSWYQQTPGKAPKLLIYATSNLHNGVPSRFSGSGSGTDFTLTISSLQPEDFATYYCQQGYKWPLTFGGGTKLEITR
B11: felinized clone 101 Fab-SASA variant T30R (VH) (Fab, V domains shown, not shown: small tags and cut ends)
VH: DVQLVESGGDLVKPGGSLRLTCVASGLSLRSSSMSWVRQAPGKGLQWVSTIYSNGGTYYTDSVKGRFTISKDNAENTLYLQMNNLKTEDTATYYCASIYYYDADYLHWYFDFWGQGALVTVSS
VL: EIQMTQSPTSLSASVGDRVTITCRASEGISNNLSWYQQTPGKAPKLLIYATSNLHSGVPSRFSGSGSGTDFTLTISSLQPEDFATYYCQQGYKWPLTFGGGTKLEITR
B12: felinized clone 101 Fab-SASA variant T60D (VH) (Fab, V domains shown, not shown: small tags and cut ends)
VH: DVQLVESGGDLVKPGGSLRLTCVASGLSLTSSSMSWVRQAPGKGLQWVSTIYSNGGTYYDDSVKGRFTISKDNAENTLYLQMNNLKTEDTATYYCASIYYYDADYLHWYFDFWGQGALVTVSS
VL: EIQMTQSPTSLSASVGDRVTITCRASEGISNNLSWYQQTPGKAPKLLIYATSNLHSGVPSRFSGSGSGTDFTLTISSLQPEDFATYYCQQGYKWPLTFGGGTKLEITR
B13: felinized clone 101 Fab-SASA variant S62D (VH) (Fab, V domains shown, not shown: small tags and cut ends)
VH: DVQLVESGGDLVKPGGSLRLTCVASGLSLTSSSMSWVRQAPGKGLQWVSTIYSNGGTYYTDDVKGRFTISKDNAENTLYLQMNNLKTEDTATYYCASIYYYDADYLHWYFDFWGQGALVTVSS
VL: EIQMTQSPTSLSASVGDRVTITCRASEGISNNLSWYQQTPGKAPKLLIYATSNLHSGVPSRFSGSGSGTDFTLTISSLQPEDFATYYCQQGYKWPLTFGGGTKLEITR

Target: T1, canine NGF tagged at the C-terminus with the Flag tag (canine, UniProt A0A8I3PYI3 122-241)
T1 construct: mature; Expressed with baculovirus technology; also called feline NGF (processed form identical)
Assay: SPR off-rate screen, Fab-SASA on BSA chip

T1 sequence (A0A8I3PYI3 entry or part of it): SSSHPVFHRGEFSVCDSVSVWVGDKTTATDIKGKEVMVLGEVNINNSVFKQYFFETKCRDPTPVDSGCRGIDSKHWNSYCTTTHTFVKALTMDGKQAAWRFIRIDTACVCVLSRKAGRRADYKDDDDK

Compared with B1, B2 is 1.6-fold lower in Kd: 2.15 nM for the first, 1.36 nM for the second.

B3 and B4 are within 1.5-fold of each other in Kd: 2.19 nM for the first, 2.12 nM for the second.

B5 and B6 are within 1.5-fold of each other in Kd: 1.88 nM for the first, 1.75 nM for the second.

B7 and B8 are within 1.5-fold of each other in Kd: 1.99 nM for the first, 2.03 nM for the second.

B9 and B10 are within 1.5-fold of each other in Kd: 1.79 nM for the first, 2.64 nM for the second.

B11 and B12 are within 1.5-fold of each other in Kd: 2.05 nM for the first, 1.93 nM for the second.

B13 showed a Kd of 1.86 nM.

Compared with B1, B2 is higher in “Ratio WT-kd/clone-kd” value: 1.36 for the first, 2.34 for the second.

Compared with B3, B4 is higher in “Ratio WT-kd/clone-kd” value: 1.17 for the first, 1.34 for the second.

Going from B5 to B6, the “Ratio WT-kd/clone-kd” value rises from 1.32 to 2.02.

Going from B7 to B8, the “Ratio WT-kd/clone-kd” value falls from 1.32 to 1.25.

First: B9
Second: B10
The “Ratio WT-kd/clone-kd” value of the first is higher: 1.77 for the first, 1.04 for the second.

Compared with B11, B12 is higher in “Ratio WT-kd/clone-kd” value: 1.29 for the first, 1.66 for the second.

In the case of B13, the “Ratio WT-kd/clone-kd” value is reported as 1.68.

Compared with B1, B2 is 1.7-fold lower in koff: 0.000695 s⁻¹ for the first, 0.000403 s⁻¹ for the second.

B3 and B4 are within 1.5-fold of each other in koff: 0.000809 s⁻¹ for the first, 0.000704 s⁻¹ for the second.

Compared with B5, B6 is 1.5-fold lower in koff: 0.000716 s⁻¹ for the first, 0.000466 s⁻¹ for the second.

B7 and B8 are within 1.5-fold of each other in koff: 0.000714 s⁻¹ for the first, 0.000755 s⁻¹ for the second.

Going from B9 to B10, the koff rises from 0.000533 s⁻¹ to 0.000903 s⁻¹ (1.7-fold).

B11 and B12 are within 1.5-fold of each other in koff: 0.00073 s⁻¹ for the first, 0.000567 s⁻¹ for the second.

In the case of B13, the koff is reported as 0.00056 s⁻¹.

B1 and B2 are within 1.5-fold of each other in kon: 323000 M⁻¹ s⁻¹ for the first, 297000 M⁻¹ s⁻¹ for the second.

B3 and B4 are within 1.5-fold of each other in kon: 370000 M⁻¹ s⁻¹ for the first, 333000 M⁻¹ s⁻¹ for the second.

B5 and B6 are within 1.5-fold of each other in kon: 380000 M⁻¹ s⁻¹ for the first, 266000 M⁻¹ s⁻¹ for the second.

B7 and B8 are within 1.5-fold of each other in kon: 358000 M⁻¹ s⁻¹ for the first, 372000 M⁻¹ s⁻¹ for the second.

B9 and B10 are within 1.5-fold of each other in kon: 297000 M⁻¹ s⁻¹ for the first, 341000 M⁻¹ s⁻¹ for the second.

B11 and B12 are within 1.5-fold of each other in kon: 357000 M⁻¹ s⁻¹ for the first, 294000 M⁻¹ s⁻¹ for the second.

B13 showed a kon of 301000 M⁻¹ s⁻¹.
